Experimental data as given in patent publication US20250255816A1, “POLYSULFIDE MICROPARTICLES AND USES THEREOF” (Vanderbilt University, priority 2022, published 2025).

What was measured:
[1] = Retinal EPO levels by ELISA in mouse microbead occlusion model (MOM) of glaucoma; parameters: species or system C57/B16 mice; settings: intravitreal injection, 6 weeks post-MP injection, ELISA of retinal tissue ex vivo
Procedure: (§1) Poly(propylene sulfide-co-ethylene sulfide) (PPSES) was synthesized using ring opening polymerization with an equimolar feed of each monomer. EPO-loaded MPs were formulated by first producing EPO-loaded dextran nanoparticles and loading these into PPSES MPs. The S/O/W technique was used to load EPO. To establish the microbead occlusion model (MOM, FIG. 10) of glaucoma, polystyrene beads were injected into the anterior chamber of C57/B16 mice. Saline-injected mice served as healthy controls. After 1 week, phosphate buffered saline (PBS)-free EPO, blank MPs, or EPO-loaded MPs were injected intravitreally. At 6 weeks post-MP injection, electroretinograms (ERGs) and visual evoked potential (VEP) tests were performed intravitally. Retinal tissue was evaluated ex vivo for EPO and ROS levels using ELISA and Amplex Red dye, respectively.

[2] = tested on: retinal reactive oxygen species (ROS); test: Retinal ROS levels by Amplex Red dye in mouse MOM model of glaucoma; parameters: species or system C57/B16 mice; settings: intravitreal injection, 6 weeks post-MP injection, ex vivo
Procedure: as §1

[3] = free protein, intravitreal; cited from earlier work

Erythropoietin [EPO]
retinal EPO levels (sustained EPO release) [1]: not different from PBS animals | retinal ROS levels [2]: Both groups outperformed free EPO | half-life intravitreally [3]: ~72 h
